First the molecules themselves.
B1: Ia Io (nucleic acid)
DNA: GGTGTCCGGGTGTGTGGGATAGACCCAGATGTGCAGTGGATGCGAGCATTTGAGTCAGAGTAGGAGCAAGCCCAGGGGCAAAGGGACCACATTGTGTATCCCGAATGAAGGATCGAGATTTCTCTCCTCATTACCCGGTGTCTTGTCACTGTTGGGGGGGCCCAACAGTCTTAGTCCTATACTGCCTGATAGGGTCGCGGCTGGCCGGACTCAAGTGCTATAGTCAGTTGATTTTCACTC
B2: Hunnivirus A2 (nucleic acid, listed as Hunnivirus sp.)
DNA: ACAGTTTTTGACAAGGACCCTCACCTGTCAATCGGGACCACCACTTTCAGTGACCCCGTGCGAAGTGTTGAGAGAAAGTGAGCTTTCTTACCCTTCATTTGTGAACCCTTCAGTCGAAGCCGCTTGGAATAAGATGGAAGGAAATGTTCATTCTAAATGGAGTGAAACATATACTTAATTTCCAGTGTTTAGTGGTCTTTCCACTAGACAACGGCACTGTCTTGCCGGAACTCTACACACCAACATTCCACGCTTGTGGGACTCAAATGTTGGATGACACAGTTGTAGCTGGAACTGAGTGTTTAGTGCACTCTGTGTAACAGTGAAAACAATGTGATCACTTCGGTGGGCTAGTAGCCTGTGGACTAACAACTGGTAACAGTTGCCTCAGGGGCCAAAAGCCACGGTGTTAACAGCACCCTACTAGTTTGATTGGAGCAATCCATGATGTTACAGAGTTAGTAACTGCCAAACAGATTGTACTGGTATCTTGGCATACCGTGCAACTTAGGATAGTGAAGGATGCCCTGGCGGTACCCATAGGTAACAAGTGACACTATGGATCTAAACAGGGGCTCACTCTACGTTGCTTTACAACTAGCTGTGAGTTAAAAAACGTCTAACTATCCACAACCTAGGGGACTAGGTTTTCCTTTTTATTTTTATACACAACTA
B3: ABPV (nucleic acid)
DNA: CCCGTCAAAATAACAACTTATAACACGATGTTACCCGAAGAAACCATTTTAGTGTAACATTTAAGATTAGAAGTAGTTCATCTAATAGAGATAGGCACTATTAGAAGGAGGCCTTTTCTAAAGGAGCCGTTAGTCAGCCCAGACAAGCGCAGTACTTTAGAAGAGAGAAGTTCCCCGATAGCGACCGAAAAGACGCGTTTTCCGTGCTAACTAATTTAAATGTGGGAACGAATATTATTATTGAAATTATGTGAGCCACGTAGCAATCAAGTCATGTTTTTGTCACTACGTTTACTCATCTAATGTAGATAATTTTGTTTAAGTACCTATTTAGGTGTCATCCCACCAGAGAAGAAATAATACGTACCGGAACCCAGAGTACACCCCTTATTTTAAGCCTTACTGGGCTTCTCTGTTAGTTAGTAATCTGGCCCACGTTTTGCGTTGAGTGGGGTCCCAACAGTAGGAATTCGACGGACAAGTAGCAAGCGAGTCGGTACCAATTGGTTTAGCCTTCGAAATTACTCTGGGCAGGAAGTTACTAAACGAGAACTTTCTGCTTAAATCCCAACGCACAAACAAATAGAGTAAATAAATAATTATA
modifications: Acute bee paralysis virus
B4: BRAV-2 (nucleic acid)
DNA: TTTGTTTTGCGGCTTTGCCGTTGTTCGGGTTTTACCTGTTTTCACACAGCAAAACAGGCCTTCTAGTTTCGTGCTTAAACGAGATCATGCTCGAACTAGAACTACATAGCTGGTCACTGGACTCATACCACACCTTGTGGAGCTTTATGGGAAAGGTGGCTAGTGGGCTGTGGAAGTGACTCTGACCACATGCCTCTCAAGTGTGGGAAATCACGGATCGGTGTAGCGACGACAACAGGCCTTGGGACACCCTCTCCAGTAATGGAGACCCAAGGGGCCAAAAGCCACGCCTCGTGCCCTGTTGTTCACAACCCCAGTGCGACCCGTGTTAGTACCTATTTGCGAGAACTGTGTCTGGACAGCTAAACACAACCCTAGTGGGAGACTAAGGATGCCCAGGAGGTACCCGGAGGTAACAAGTGACACTCTGGATCTGACCTGGGGAGAGAGGGCTTGCTTTACAGGCGCCTCTCTTTAAAAAGCTTCTATGTCTCATCAGGCACCGGAGGCCGGGCCTTTTCCTTTTAAAATTACACTTA
modifications: Bovine rhinitis A virus
B5: Mobovirus A (nucleic acid)
DNA: TATTCTCCCACAAACCTTCTTGTAACTCTGTTAAGCCTTTTACATCCATGTAATTTAATTTTCTCCACCTAAAAGGATTTCCCCCATGGTCCTTTTTGGCTCGAACAAATGCTACATAGGGTCTTGTTTTCTCCCCCTGGCTCTCTTGCCAGGGTTCCATACCCCAATTCCTCTATTTCCATGATTTTTCATCATGGTTTATTTTTACTGTCTTCTTATTTTCTGAGGTGACCAACTCCTAAGCCGACTGGGTCGCGGAAGCCCGGACTCCTCGCATCACTAGGGTGCGTAGCGATGTAGGCGAAAATATTGGTTGCTAGATGCATACATATAGTGAATTGATACTACACCAAACTCTGTTCTTTTTGAAACTAGCTATTTTCTAAGTAAGGTAGGCTACGGGTGAAACCTTACCATTGCAGGTACGTGAACCGCAACGGACATTTGGCCGAAGACTGGTGTACCCACGTCAGTTATAGGACCTCTTCAACGTTGGTGGACGGCATGTCACTGATTAGTTAGGCTAGTGAATTTAAGTTCAGGGGGTATCTTTTAGCTTAAGCGTGTATTCTAGTAGGACTTGCAGAGCCTCCCCACCTAGGAGGATCTCTGTTTATAGCCCCTTTTCCTTGTTCCGTTAGTTTTCCACACTTTTACAATATTTGATGATTTGTT
B6: Hunnivirus A1 (nucleic acid, listed as Hunnivirus sp.)
DNA: TAACGTTTGGCAAGAACCCTCACCTGTCAATTGGGACCACCACTTTCAGTGACCCCATGCGAAGTAGTGAGAGAGAATAAGCTTTCTTACCCTTCATTTGTGAACCCTTCAGTCGAAGCCGCTTGGAATAAGATAGGAGGAAAAGTTCATTCTAAATGGAGTGAAACATGTACTTCAGAATTTCTAGCACGCGCTGGGCTTTCTTGCGTGTGACGGCACTGTCTTGCCGGAGCTCTCCACACTGACACCCCACGCTTGTGGACCTTGGTGGCAGATGACAACACTGCAGCTGGAATTGAGTGTCTGGTACACTCTGTGTAACAGTGAAAACAATGTGATCACTTCGGTGAGCTAGTAGCCTGTGGACCAACAACTGGTAACAGTTGCCTCAGGGGCCAAAAGCCACGGTGTTTACAGCACCCTACTGGTTTGATTGGAGCAATCCAAGATGTCACAGAGTTAGTAATTGCCAAGCAGTCCGTACTGGTATCTTGACATACCGTGCAGTTTTGGATAGTGAAGGATGCCCTGACGGTACCCATAGGTAACAAGTGACACTATGGATCTAAGCAGGGGCTCACTCTACGCTGCTTTACAGCTGGCTGTGAGTTAAAAAACGTCTAGCTATCCACAACCTAGGGGACTAGGTTTTCCTTTTATTTAGATTACAATTAT
B7: Burpengary Virus (nucleic acid)
DNA: CTCCCCCCCCTTCCCCTTCCCGAGTAGGAGATTGGCATGTATGCTCTACATGCCCGATTCTCTCTTGCTCACTCTCTTAAATCCTGGTGGCGGTCTCGGATTAAACATTTATGTCGTATCTGGGATCGTCTTACTTGGTGGTAATTCCTCTGTTGCCTAGGGACCTCCGGACTGCCGGATTAAAGGTCTCAACAGAGGGCAATGTACAAGGAAGTCATTATACGCTAATTAAGTATTTGATGAATGACTAGTGTGACAGGGCTGAGGAACTCCCCCCGGGTAACCGGTGCCTCAGCGTCCGAAAGACACGTGGATAGGATCCACCCTGTTATACCCAGCACGATGTAATAGTCAAATACCTCTGATTTGTGTAGGATGTATAAATTGTGCATTGTAAATTTTGGGCGTAGAGATGCTCCGAAGGTACCCCGTTTTACGGGATCTGATCGGAGGCTAATTACCCAATGCGCCCTAAATAACTTCATATAATTTCTTTTTCTTTATTCAAA

This series concerns HEK293 cells. The format is cell-based, human. The settings on record: luminescence from secreted Gluc in supernatant 24 hours after transfection of HEK293 cells; circular RNA encoding Gluc with the named IRES (UTR truncated to 675 nt).
Regarding B1, the Expression amounted to 1.35E+06.

As to B2, the Expression turned out to be 6.38E+06.

Take B3: the Expression came out at 6.48E+05.

Consider B4, for which the Expression was 3.98E+06.

Consider B5, for which the Expression is reported as 3.44E+06.

In turn, B6 came in with an Expression of 1.61E+06.

The molecule B7 had an Expression of 1.09E+07.
